Reference: patent US20220204609A1

What was measured:
[1] = target: Claudin18.1 on cells (human) (UniProt P56856); experiment: flow cytometry on 293T-Claudin18.1 cells, antibody at 3 µg/mL
[2] = target: Claudin18.1 on cells (human) (UniProt P56856); experiment: as above; remark: listed apart in the source
[3] = target: Claudin18.1 on cells (human) (UniProt P56856); experiment: flow cytometry on 293T-Claudin18.1 cells, antibody at 1.5 µg/mL
[4] = target: Claudin18.1 on cells (human) (UniProt P56856); experiment: as above; remark: listed apart in the source
[5] = target: Claudin18.1 on cells (human) (UniProt P56856); experiment: flow cytometry on 293T-Claudin18.1 cells, antibody at 0.75 µg/mL
[6] = target: Claudin18.1 on cells (human) (UniProt P56856); experiment: as above; remark: listed apart in the source
[7] = target: Claudin18.1 on cells (human) (UniProt P56856); experiment: flow cytometry on 293T-Claudin18.1 cells, antibody at 0.375 µg/mL
[8] = target: Claudin18.1 on cells (human) (UniProt P56856); experiment: as above; remark: listed apart in the source

Claudin18.1 on cells (human), sequence (P56856 whole entry, form in doubt): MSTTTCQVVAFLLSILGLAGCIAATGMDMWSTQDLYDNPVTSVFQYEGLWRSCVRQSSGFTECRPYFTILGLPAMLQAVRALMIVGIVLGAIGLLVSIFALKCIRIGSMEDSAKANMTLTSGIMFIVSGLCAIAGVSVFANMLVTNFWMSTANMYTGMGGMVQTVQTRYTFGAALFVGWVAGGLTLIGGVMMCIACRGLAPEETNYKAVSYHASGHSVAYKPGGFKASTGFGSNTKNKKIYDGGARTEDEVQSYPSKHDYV

mean fluorescence intensity [1]: 35600
mean fluorescence intensity [2]: 12500
mean fluorescence intensity [3]: 24900
mean fluorescence intensity [4]: 17300
mean fluorescence intensity [5]: 32000
mean fluorescence intensity [6]: 20700
mean fluorescence intensity [7]: 15600
mean fluorescence intensity [8]: 12800
Substance: IMAB362 (antibody)
